Assay results published in patent US6348573B1, “Compositions and methods for identifying apoptosis signaling pathway inhibitors and activators” (The Regents of the University of Michigan, priority 1998, dated 2002).

Key:
[1] = target: Bcl-XL (UniProt Q07817 1-233); test: co-immunoprecipitation from co-transfected 293T cells (data not shown)
[2] = target: c-IAP-2 (UniProt Q13489 1-604); test: as above
[3] = target: T1, FADD (Fas-associated death domain protein), expressed in 293T cells (human, UniProt Q13158 1-208); test: as above
T1 construct: also called MORT-1; pcDNA3-FADD-AU1
T1 sequence (looked up): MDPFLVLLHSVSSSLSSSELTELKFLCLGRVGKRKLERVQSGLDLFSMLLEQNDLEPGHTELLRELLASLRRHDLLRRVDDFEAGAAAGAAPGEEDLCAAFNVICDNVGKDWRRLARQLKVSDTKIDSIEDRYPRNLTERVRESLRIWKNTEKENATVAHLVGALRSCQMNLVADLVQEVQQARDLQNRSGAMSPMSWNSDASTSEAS

[4] = target: T2, caspase-9 (Homo sapiens, UniProt P55211); test: Co-immunoprecipitation of ARC with caspase-9; type: binding; conditions: 293T lysates
T2 construct: expressed in transfected cells; host or cells: human 293T cells
T2 sequence (P55211 1-416): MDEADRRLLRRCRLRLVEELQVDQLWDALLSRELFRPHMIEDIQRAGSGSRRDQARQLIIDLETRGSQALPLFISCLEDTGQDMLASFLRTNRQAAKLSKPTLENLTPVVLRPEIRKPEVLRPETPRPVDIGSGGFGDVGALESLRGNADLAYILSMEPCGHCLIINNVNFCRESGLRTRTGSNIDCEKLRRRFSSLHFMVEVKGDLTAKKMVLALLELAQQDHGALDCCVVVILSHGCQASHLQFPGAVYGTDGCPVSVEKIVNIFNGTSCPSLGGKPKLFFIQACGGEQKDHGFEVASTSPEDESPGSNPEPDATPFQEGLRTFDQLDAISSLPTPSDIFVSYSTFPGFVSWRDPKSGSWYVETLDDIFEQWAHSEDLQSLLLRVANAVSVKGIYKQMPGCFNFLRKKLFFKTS
Description: (§1) Briefly, 2 μg of pcDNA3 or pcDNA3-ARC-Flag or -HA was co-transfected with 3 μg of pcDNA3 or caspase expression plasmids. Total amount of transfected plasmid DNA was always 5 μg. 293T cells were harvested after 22 hr and lysed with 0.2% NP-40 isotonic lysis buffer [Z. N. Oltvai et al., Cell 74:609-619 (1993)]. For immunoprecipitation, […] of soluble protein was incubated with 10 μg/ml of polyclonal anti-Flag, monoclonal anti-AU1 or polyclonal anti-HA antibody for 2 hr at 4° C. and tagged proteins were immunoprecipitated with Protein A-Sepharose 4B (Zymed Laboratories Inc., San Francisco, Calif.). Immunoprecipitates were subjected to 12% SDS-polyacrylamide electrophoresis and immunoblotted with anti-Flag, anti-AU1 or anti-HA antibodies.

[5] = target: T3, caspase-1, epitope-tagged (human, UniProt P29466 1-404); test: co-immunoprecipitation from co-transfected 293T cells, immunoblot
T3 construct: also called pcDNA3-caspase-1-Flag
T3 sequence: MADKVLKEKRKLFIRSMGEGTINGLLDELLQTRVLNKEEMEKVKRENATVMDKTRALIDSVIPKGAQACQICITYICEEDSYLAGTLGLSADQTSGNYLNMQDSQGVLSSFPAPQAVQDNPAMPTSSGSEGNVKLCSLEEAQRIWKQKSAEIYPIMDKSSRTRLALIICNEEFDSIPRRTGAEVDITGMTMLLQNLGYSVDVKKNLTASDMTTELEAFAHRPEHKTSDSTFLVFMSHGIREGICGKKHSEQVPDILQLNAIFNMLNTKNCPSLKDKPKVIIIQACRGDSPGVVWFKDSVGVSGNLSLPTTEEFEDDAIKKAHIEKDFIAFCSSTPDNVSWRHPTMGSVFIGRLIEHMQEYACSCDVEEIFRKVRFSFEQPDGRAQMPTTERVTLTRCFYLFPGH

[6] = target: T4, caspase-3, epitope-tagged (UniProt P42574 1-277); test: as above
T4 construct: also called pcDNA3-caspase-3-Flag; not shown: position and
T4 sequence (looked up): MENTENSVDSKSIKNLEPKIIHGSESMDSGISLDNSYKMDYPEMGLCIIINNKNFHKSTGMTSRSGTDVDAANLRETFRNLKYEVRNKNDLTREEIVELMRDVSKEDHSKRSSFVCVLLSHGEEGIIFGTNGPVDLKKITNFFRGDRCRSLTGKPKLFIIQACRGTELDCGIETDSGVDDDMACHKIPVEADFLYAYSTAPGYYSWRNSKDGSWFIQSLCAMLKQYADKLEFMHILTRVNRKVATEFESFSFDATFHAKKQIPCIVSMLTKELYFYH

[7] = target: T5, caspase-9, Flag-tagged (pcDNA3-caspase-9-Flag) (UniProt P55211 1-416); test: as above
T5 construct: not shown: Flag tag
T5 sequence (looked up): T2 sequence (P55211 1-416)

[8] = target: T6, CED-3 (Caenorhabditis elegans, UniProt P42573); test: Co-immunoprecipitation of ARC with CED-3; type: binding, C. elegans; conditions: 293T lysates
T6 construct: expressed in transfected cells; host or cells: human 293T cells
T6 sequence (P42573 222-503): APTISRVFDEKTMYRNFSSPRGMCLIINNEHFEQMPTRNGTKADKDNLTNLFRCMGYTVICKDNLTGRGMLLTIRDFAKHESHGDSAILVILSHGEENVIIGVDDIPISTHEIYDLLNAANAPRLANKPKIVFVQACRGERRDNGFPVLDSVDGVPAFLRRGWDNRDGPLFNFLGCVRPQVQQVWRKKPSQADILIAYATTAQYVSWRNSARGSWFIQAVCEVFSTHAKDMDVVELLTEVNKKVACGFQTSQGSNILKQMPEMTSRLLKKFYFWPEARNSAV
Description: as §1

Sequence of Bcl-XL (Q07817 whole entry): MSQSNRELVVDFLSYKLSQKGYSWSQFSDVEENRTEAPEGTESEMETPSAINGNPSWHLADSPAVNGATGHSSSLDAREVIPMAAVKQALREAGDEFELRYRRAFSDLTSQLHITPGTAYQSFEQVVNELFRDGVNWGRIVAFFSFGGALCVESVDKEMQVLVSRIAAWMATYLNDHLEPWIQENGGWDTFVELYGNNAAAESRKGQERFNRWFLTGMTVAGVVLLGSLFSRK
Sequence of c-IAP-2 (Q13489 whole entry, the tested form may be a part): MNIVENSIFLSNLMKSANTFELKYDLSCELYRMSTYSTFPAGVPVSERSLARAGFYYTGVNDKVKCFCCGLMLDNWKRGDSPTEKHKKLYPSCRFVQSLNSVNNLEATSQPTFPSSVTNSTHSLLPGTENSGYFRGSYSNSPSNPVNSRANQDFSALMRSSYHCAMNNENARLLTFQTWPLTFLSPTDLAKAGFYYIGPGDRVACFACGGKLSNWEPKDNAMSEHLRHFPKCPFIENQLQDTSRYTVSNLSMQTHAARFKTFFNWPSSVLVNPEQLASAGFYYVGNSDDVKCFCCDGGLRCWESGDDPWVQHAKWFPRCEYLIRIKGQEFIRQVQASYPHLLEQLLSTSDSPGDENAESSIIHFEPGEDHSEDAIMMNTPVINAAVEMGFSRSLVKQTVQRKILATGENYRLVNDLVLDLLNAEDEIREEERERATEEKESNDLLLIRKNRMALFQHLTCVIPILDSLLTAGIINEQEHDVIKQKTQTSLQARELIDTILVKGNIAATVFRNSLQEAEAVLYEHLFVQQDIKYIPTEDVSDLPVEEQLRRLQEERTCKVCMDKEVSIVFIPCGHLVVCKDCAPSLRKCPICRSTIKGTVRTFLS

- binding result [1]: no binding
- binding result [2]: no binding
- co-immunoprecipitation with caspase-9 [4]: not
- binding result [5]: no binding
- binding result [6]: no binding
- binding result [7]: no binding
- co-immunoprecipitation with CED-3 [8]: co-immunoprecipitated
B1: human ARC (Apoptosis Repressor with CARD domain), C-terminally Flag- or HA-tagged (other)
chain: MGNAQERPSETIDRERKRLVETLQADSGLLLDALLARGVLTGPEYEALDALPDAERRVRRLLLLVQGKGEAACQELLRCAQRTAGAPDPAWDWQHVGPGYRDRSYDPPCPGHWTPEAPGSGTTCPGLPRASDPDEAGGPEGSEAVQSGTPEEPEPELEAEASKEAEPEPEPEPELEPEAEAEPEPELEPEPDPEPEPDFEERDESEDS
notes: Entire open reading frame expressed in 293T cells; The two tagged constructs are merged here; also called ARC-Flag; ARC-HA; not shown: C-terminal FLAG or HA tag
- binding result [3]: no binding
